T1: Recombinant human STAT1α (OriGene Technologies, Inc.), P42224
T1 chain: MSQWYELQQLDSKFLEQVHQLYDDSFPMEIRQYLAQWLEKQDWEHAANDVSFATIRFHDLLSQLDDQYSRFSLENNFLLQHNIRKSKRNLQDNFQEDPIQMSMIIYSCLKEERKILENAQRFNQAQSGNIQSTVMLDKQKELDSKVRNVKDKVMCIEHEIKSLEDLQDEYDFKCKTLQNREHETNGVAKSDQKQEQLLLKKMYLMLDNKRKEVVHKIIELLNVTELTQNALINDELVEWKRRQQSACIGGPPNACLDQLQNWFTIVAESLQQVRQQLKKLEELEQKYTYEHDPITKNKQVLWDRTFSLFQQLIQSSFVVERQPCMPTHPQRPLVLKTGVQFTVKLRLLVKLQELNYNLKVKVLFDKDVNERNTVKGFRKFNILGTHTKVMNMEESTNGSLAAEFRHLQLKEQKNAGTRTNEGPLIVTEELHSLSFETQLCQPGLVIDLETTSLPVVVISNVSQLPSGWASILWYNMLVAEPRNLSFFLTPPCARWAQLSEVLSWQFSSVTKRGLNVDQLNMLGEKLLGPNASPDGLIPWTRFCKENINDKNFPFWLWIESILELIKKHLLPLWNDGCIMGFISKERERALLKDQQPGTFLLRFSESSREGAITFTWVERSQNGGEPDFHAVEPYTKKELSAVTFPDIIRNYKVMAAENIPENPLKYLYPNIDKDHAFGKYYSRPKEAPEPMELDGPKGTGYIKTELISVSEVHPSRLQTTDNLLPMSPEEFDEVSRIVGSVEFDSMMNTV


What was measured:
[1] = molecular target: Recombinant human STAT1α (OriGene Technologies, Inc.) (UniProt P42224)
[2] = molecular target: T1, Recombinant human STAT1α (OriGene …)

Row | Molecule | ADP-ribosylation (protein ribosylation assay) [1] | ADP-ribosylation (protein ribosylation assay, Western blot with Streptavidin-HRP) [2] | mono-ADP-ribosylation sites by LC-MS/MS [2]
1 | Recombinant human PARP9 (BPS Bioscience Inc.) | PARP9 did not ADP-ribosylate STAT1α |  | 
2 | Recombinant human PARP14 (BPS Bioscience Inc.) (protein) KEYQELNELQKKLNINISLDHKRPLIKVLGISRDVMQARDEIEAMIKRVRLAKEQESRADCISEFIEWQYNDNNTSHCFNKMTNLKLEDARREKKKTVDVKINHRHYTVNLNTYTATDTKGHSLSVQRLTKSKVDIPAHWSDMKQQNFCVVELLPSDPEYNTVASKFNQTCSHFRIEKIERIQNPDLWNSYQAKKKTMDAKNGQTMNEKQLFHGTDAGSVPHVNRNGFNRSYAGKNAVAYGKGTYFAVNANYSANDTYSRPDANGRKHVYYVRVLTGIYTHGNHSLIVPPSKNPQNPTDLYDTVTDNVHHPSLFVAFYDYQAYPEYLITFRK |  | Recombinant PARP14 protein induced ADP-ribosylation of PARP14 itself, PARP9, and STAT1α | Glu657 and Glu705 of STAT1α were mono-ADP-ribosylated by PARP14

Reference: US20160289685
